Measured values taken from the nanobody polyreactivity screen of Harvey et al. (2022).

Experiment: yeast display, Sf9 membrane polyspecificity reagent, FACS + sequencing; frameworks hold sequencing errors
Procedure, shortened: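 A nanobody's polyreactivity label depends on the gate it was sorted from. Yeast display cells were stained with 10% biotinylated, detergent-solubilized Sf9 membrane reagent for 1 hour at 4 °C, enriched on streptavidin microbeads and sorted by FACS. The low and high (top ~1%) gates were set on anti-HA fluorescence for expression and streptavidin fluorescence for reagent binding.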
With “QVQLVESGGGLVQAGGSLRLSCAASGSTFRYNAMGWYRQAPGKVRELVASITWSGGDTYYADSVKGRFTISRDNAKNTVYLQMNSLKPEDTAVYYCNKRVHYIAGRGYDYWGQGNQVTVSS” the “polyreactivity (PSR sort gate)” value was “low polyreactivity”. For “QVQLVESGGGFVQAGGSLRLSCAASGRIRFYAMGWYRQAPGKERELVAAISSSGGSTYYADSVKGSFTISRDNAKNTVYLQMNSLKPEDTAVYYCAAAWYYLGTRAQLYDYWGQGTQVTVSS”, the “polyreactivity (PSR sort gate)” value was “low polyreactivity”. For “QVQLVESGGGLVQAGGSLRLSCAASGSIFDPNAMGWYRQAPGKERELVAVITWSSSSTYYADSVKGRFTISRDNAKNTVYLQMNSLKPEDTAVYYCAAVVQGTTVWWGYDYWGQGTLVTVSS”, the “polyreactivity (PSR sort gate)” value was “low polyreactivity”. With “QVQLVESGGGLVQAGGSLRLSCAASGSIFDWYAMGWYRQAPGKEGELVAAISSGDSTYYADSVKGRFTISRDNAKITVYLQMNSLKPEDTAVYDCAAEFHDDHPSFDYWGQGTQVTVSS” the “polyreactivity (PSR sort gate)” value was “low polyreactivity”. For “QVQLVESGGGLVQAGGSLRLSCAASGFILEDYTMGWYRQAPGKERELVAAISSGGTRTYYADSVKGRFTISRDNAKNTVYLQMNSLKPEDTAVYYCTTRRGERGYWGQGTQVTVSS”, the “polyreactivity (PSR sort gate)” value was “high polyreactivity”. In the case of “HVQLVESGGGLVQAGGSLRLSCAASGGTFYTYVMGWYRPAPGKERELVAAISGSGGSTYYADSVKGRFTISRDNAKNTVYLQMNSLKPEDTAVYYCAAVLYYGDIPYYYWGQGTQVTVSS”, the “polyreactivity (PSR sort gate)” value is reported as “high polyreactivity”. In the case of “QVHLVESGGGLVQAGGSLRLSCASYGSTLELNAMGWYRQAPGKERELVAAITSSGGRTYYADSVKGRFTISRDNAKNTVYLQMKSLKPEDTAVYYCAAEPGQQRVVDRYDYWGQGTQVTVSS”, the “polyreactivity (PSR sort gate)” value is reported as “low polyreactivity”. With “QDQLVESGGGLVQAGGSLRLSCAASGGTFGPNAMGWYRQSPGKERELVAAISASGGITYYADSVKGRFTISRDNAKNTVYLQMNSLKPEDTAVYYCAAAITWIYSQAAFKIVQYDYWGQGTQVTVSS” the “polyreactivity (PSR sort gate)” value was “low polyreactivity”. For “QVQLVESGGGIVQAGGSLRLSCAASGSTFRLYAMGWYRQAPGKERELVAAITWSVGSTYYADSVKGRFTISRDNAKNTVYLQMNSLKPEDTAVYYCAADRIGYYLRVSYRGKYDHWGQGTQVTVSS”, the “polyreactivity (PSR sort gate)” value was “low polyreactivity”. With “QVQMQESGGGLVQAGGSLRLSCAASGSISRYYDMGWYRQAPGKEREFVAGISGGAITYYADSVKGRFTISRDNAKNSVYLQMNSLNREDTAVYYCAADTGVYQYHSYWGQGTQVTVSS” the “polyreactivity (PSR sort gate)” value was “low polyreactivity”. With “QVQLVESGGGLVQAGGSLRLSCAASGRTFRVYAMGWYRQAPGKERELVAAISGSGGSTYYADSLKGRFTISRDNAKNTVYLQMNSLKPDDTAVYYCAARYFGPGWRDRDYNYWAQGTQVTVSS” the “polyreactivity (PSR sort gate)” value was “high polyreactivity”. With “QVQLVESGGGLVQAGGSLRLSCDASGRIFGRYAMGSYRPAPGNDRELVAAIPRNGGSTYADSVKGRFTISRDNAKNTVYLQMNSLKPEDTAVYYCAARNSYRYSKYDYWGQGTQVTVSS” the “polyreactivity (PSR sort gate)” value was “high polyreactivity”. With “QVQLVESGGGLVQAGGSLRLSCAASGSIFNANAMGWYRQAPGKEWELVARITRGGRTNYADSVKGRFTISRDNAKNTVYLQMNSLKPEDTAVYYCAAVYYVGFPHKYDYWGQGTQVNVSS” the “polyreactivity (PSR sort gate)” value was “low polyreactivity”. With “QVQLVESGGGLVQAGGSLRLSCAASGRILRPYAMGWYRQAPGKERELDAGITVRGGTTYYADSVKGRFTISRDNAKNTVYLQMNILKPEDTAVYYCAATDIHYGPSYIPYWYGYCGQGTQVTVSS” the “polyreactivity (PSR sort gate)” value was “high polyreactivity”. For “QVQLVESGGGLVQAGGSLRLSCAASGRTFNAYTMGSYRPAPGKERELVAAITSSGGNTYYADSVKGRFTISRDNAKNTVYLQMNSLKPEDTAVYYCNTVYLYGTHDYWGQGTQVTVSS”, the “polyreactivity (PSR sort gate)” value was “low polyreactivity”. With “QVQLVESGGGLVQAGGSLRLSCAASGFIFYHYAMGWYRQAPGKERELVAAISGRGGSTYYADSVKGRFTISRDNAKNTVYLQMNSLKPEDTAVYYCATDYSRTFDYWGQGTQVTVSS” the “polyreactivity (PSR sort gate)” value was “high polyreactivity”. In the case of “QVQLVESGGGLVQAGGSLRLSCAASGRTFFRNTMGWYRQAPGKERELVATISSSGGSTYYADSVKGRFTISRDNAKNTVYLQMNSLKPEDTAVYYCAAAPSKWYYGYGYWGQGTQVTVSS”, the “polyreactivity (PSR sort gate)” value is reported as “high polyreactivity”. With “QVQLVESGGGLVQAGGRLRLSCAASGSIFPANAMGGSRQAPGKERELVAGISERGSSTYYADSVKGRFTISRDNAKNTVYLQMNSLKPEDTAVYYCAADDVGRYWSSTHNWARGDYWGQGTQVTVSS” the “polyreactivity (PSR sort gate)” value was “low polyreactivity”. With “QVQLQESGGGLLQAGGSLRLSCAASGNFFDADIMGWYRQAPGKERELVASITDGGSTNYADRVKGRFTISRGNTKNTVYLLMNCLKPDDTSVYYCAAIAYPDIPTYFDYNSDYFYGGQGTQVTVSS” the “polyreactivity (PSR sort gate)” value was “high polyreactivity”. With “QVQLVESGGGLVQAGGSLRLSCAASGSTFGLYVMGWYRQAPGKERELVAAISWSGGSTYYADSVKGRFTISRDTAKNTVYLQMNSLKPEDTAVYYCAKVFRTYRYPYGYWGQGTQVTVSS” the “polyreactivity (PSR sort gate)” value was “high polyreactivity”. In the case of “QVQLVESGGGLDQAGGSLRLSCAASGRIFKRYAMGWYRQAPGKERELVAAITRSGTRTYYADSVKGRFTISRDNAKNTVYLQMNSLKPEDTAVYYCAAALGWYSAFGYWGQGTQVTVSS”, the “polyreactivity (PSR sort gate)” value is reported as “high polyreactivity”. In the case of “QVQLVESGGGLVQAGGSLRLSCAASGSTFPKYAMGWYRQAPGKERELVASISVTTGSTYYADSVKGRFTISRDNAKNTVYLQMNSLKPEDTAVYYCAARRGWGDDYWGQGTQVTVSS”, the “polyreactivity (PSR sort gate)” value is reported as “high polyreactivity”. For “QVQLVESGGGLVQAGGSLRLSCAASGSTFAGNAMGWYRQAPGKERELFAAITFSGGRTDYADSVKGRFTISRDNAKNTVYLQMNSLKPEDTAVYYCAAPADVTVHYLNYYWGQGTQVTVSS”, the “polyreactivity (PSR sort gate)” value was “low polyreactivity”. With “QVQLVESGGGLVQAGGSLRLSCAASGSIFAYYAMGWYRQAPGKERELVAAISRRGGSTYYADSVKGRFTISRDNAKNTVYLQMNSLKPEDTAVYYCAARRSTQYKTGVDSWGQGTQVTVSS” the “polyreactivity (PSR sort gate)” value was “high polyreactivity”. In the case of “QDLLVESGGGLVQAGGRLRLSCAASGSTFRYYAMGWYRQAPGKERELVAAITNSCGSTNYADSVKGRFTISRDNAKNTVYLQMNSLKPEDTAVYYCNANTWRYFTMGYWGHGTQVTVSS”, the “polyreactivity (PSR sort gate)” value is reported as “high polyreactivity”. In the case of “QVHVVESWGGLVQAGGSLSLSCAASGLIIWMYTMGWYRQAPWKERELVAAIDWSGGSTYYADSVKGRFTISRDNAKNTVYLQMNSLKPEDTAVYYCAADPEPSYRFDYWGQGTQVTVSS”, the “polyreactivity (PSR sort gate)” value is reported as “low polyreactivity”. In the case of “QVQLVESGGGLVQAGGSLRLSCAASGRIYPAYAMGWSRQAPGKERELVASIRRGGITYADSVKGRFTISRDNAKNTVYLQMNSLKPEDTAVYYCNADYRGWGYHMDYWGQGTQVTVSS”, the “polyreactivity (PSR sort gate)” value is reported as “low polyreactivity”. With “QVQLVESGGGLVKAGGSLRLSCAASGSTFRPYAMGWYRPAPGKERELVAAITSRGGSTYYADSVKGRFTISRDNAKNTVSLQMNSLKPEDTAVYYCAASYEVVASSYRYYYWGQGTQVTVSS” the “polyreactivity (PSR sort gate)” value was “high polyreactivity”. For “QVQLVESGGGLVQAGGSLRLSCAASGRIFYLYVMGWYRQAPGKERELVAAISIGSTTNYADSVKGRFTISRDNAKNTVYLQMNSLKPEDTAVYYCNARDGPPFYDYWGQRTQVTVSS”, the “polyreactivity (PSR sort gate)” value was “low polyreactivity”. For “QVQLVESGGGLVKAGGSLRLSCAASGLILYRYVMGWYRQAPGKERELVAAISSSGGRTYYADSVKGRFTISRDIAKNTVYLQMNSMKPEDTAVYYCAKRRSDARRGYDYWGQGTQVTVSS”, the “polyreactivity (PSR sort gate)” value was “high polyreactivity”.
